The supplement of paper PMC10724198
± gives the standard deviation of the averaged measurements.

What follows are sequences tested on Saccharomyces cerevisiae (assay: protein stability index of tFT-peptide fusion (C-terminal peptide) (PSI (0-1 scale)); higher = more stable (slower turnover)). Settings: genetic background: wild type; temperature: 30 C.
Procedure: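 Multiplexed protein stability (MPS) profiling in S. cerevisiae. Random 12-aa peptides (tFT-X12 library) are fused to the C-terminus of a sfGFP-mCherry tandem fluorescent timer, after mCherry and a GGGS linker. Cells are FACS-sorted into 8 mCherry/sfGFP bins and deep-sequenced. The protein stability index (PSI) is the read-weighted bin average, scaled from 0 (unstable) to 1 (stable). Only peptides with >10 reads are reported; cells were grown at 30 °C in SC-His with glucose.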
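Note: PSI is a weighted mean of sequencing reads over stability bins, variants kept only with over 10 reads, mCherry proximal and sfGFP distal, peptide attached via GGGS linker.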

Row | Sequence | protein stability index
1 | DEEVGWGRGGGW | 0.673 ± 0.011
2 | APPPGSTFVSCE | 0.674 ± 0.045
3 | GTYGLCVWGRYL | 0.633 ± 0.056
4 | KEEKLKNKITKY | 0.679 ± 0.011
5 | DLPATSAETAPK | 0.699 ± 0.058
6 | VVFQSLPCLSPP | 0.758 ± 0.037
7 | CTIAPSIFFTRG | 0.704 ± 0.11
8 | ARKDVTRKSSND | 0.665 ± 0.064
9 | LGPFSVPCDPHF | 0.696 ± 0.04
10 | LGGGGGGGVAGD | 0.723 ± 0.069
11 | SPAGQRPQVPVS | 0.667 ± 0.075
12 | KTQKNQKLTRSK | 0.769 ± 0.12
13 | PYSSVPLAPPRP | 0.736 ± 0.043
14 | VRLRLGLLAGWS | 0.633 ± 0.012
15 | TSAPRGNGKPEQ | 0.678 ± 0.016
16 | PRRLAPPPPPSP | 0.744 ± 0.012
17 | RGRGKVGLWEGS | 0.669 ± 0.067
18 | YFALLMLTPPPP | 0.636 ± 0.022
19 | GRIMRVPNENLT | 0.696 ± 0.22
20 | FPPLIPLPINHP | 0.631 ± 0.1
21 | DGTRVSFLGHKG | 0.665 ± 0.053
22 | PYRFRDRTYEEL | 0.673 ± 0.022
23 | EEWRRRSTKERR | 0.641 ± 0.013
24 | PPPPPSPAPSLR | 0.723 ± 0.052
25 | LAGLLMSPNMSP | 0.697 ± 0.025

Row | Sequence | protein stability index
26 | PLLLHHPPPRVP | 0.666 ± 0.029
27 | GGVGATSGRLSR | 0.712 ± 0.011
28 | ALPGHFCVSFLP | 0.752 ± 0.033
29 | ISPGWLSRLWVR | 0.629 ± 0.0083
30 | PPLMLPSTPSSS | 0.704 ± 0.095
31 | QDLIVENGSVSG | 0.655 ± 0.009
32 | ALGHAKDSVYGM | 0.679 ± 0.041
33 | HIIRGDCVGVLG | 0.618 ± 0.017
34 | LVGAGREGRFVA | 0.732 ± 0.083
35 | TIMRGEPGQSHF | 0.741 ± 0.089
36 | RSTPRPSSRDSL | 0.7789 ± 0.006
37 | APPCILCLFPAC | 0.716 ± 0.024
38 | GGGIERYCWLQI | 0.708 ± 0.067
39 | QNIGPKEESVLA | 0.682 ± 0.035
40 | PRTGPLPPLTPL | 0.679 ± 0.016
41 | VPSRRLPLPPAS | 0.695 ± 0.0086
42 | PQIIFVSRASYL | 0.681 ± 0.015
43 | PRRPPPLPPASF | 0.713 ± 0.047
44 | GIFRTRGFPPVG | 0.694 ± 0.088
45 | AVAIGQGLSAGV | 0.686 ± 0.053
46 | VPPLVPLHPPPP | 0.709 ± 0.047
47 | GSMTGYVRVGEG | 0.57 ± 0.0064
48 | PLSASPLPPFSR | 0.734 ± 0.11
49 | KRNKITKKDRIN | 0.613 ± 0.031
50 | KFLQRTPGHSSE | 0.699 ± 0.048

Row | Sequence | protein stability index
51 | WLGGIFRNKVFT | 0.621 ± 0.013
52 | EKIKKQITRTRR | 0.6652 ± 0.0053
53 | RPEVRIHITSQS | 0.655 ± 0.017
54 | LISSVRLACGVS | 0.554 ± 0.061
55 | DWHLLVRRPFSR | 0.714 ± 0.042
56 | HDGIQVSVRRRT | 0.67 ± 0.011
57 | FGARVWVGRVGG | 0.657 ± 0.069
58 | TRSDILGAERWG | 0.6794 ± 0.0033
59 | SRHGFLVNMCTL | 0.683 ± 0.028
60 | WSREGGVVESVG | 0.709 ± 0.019
61 | PNNANHIKHRQY | 0.6722 ± 0.0012
62 | GAAKDYLMALEG | 0.705 ± 0.076
63 | GRGRFMPRDWYW | 0.708 ± 0.028
64 | PSPQNIPDPISP | 0.673 ± 0.04
65 | FDITGAGLDSSF | 0.7904 ± 0.0053
66 | WNRSAFLSSGTI | 0.67578 ± 3.2e-05
67 | SGRGVEVGGEGE | 0.752 ± 0.053
68 | GVCPPAGDAGGV | 0.711 ± 0.018
69 | PPHHLPPGPPHP | 0.72 ± 0.078
70 | AAWLSQLNKVNV | 0.6679 ± 0.0014
71 | RCPPLWNPLSPL | 0.697 ± 0.034
72 | VGEAGTRASVPV | 0.665 ± 0.12
73 | FDSSLFTVSQYH | 0.768 ± 0.084
74 | PPPLSLLPAPPA | 0.6953 ± 0.0021
75 | GAWVAVTWAAGL | 0.729 ± 0.018

Row | Sequence | protein stability index
76 | RPKPKRIGREEP | 0.63 ± 0.083
77 | TYWAPPFPLSLP | 0.52 ± 0.019
78 | DALVQVFANVGA | 0.6629 ± 0.0059
79 | FSTIWSLPLSPR | 0.716 ± 0.038
80 | VGPPWSISLSII | 0.636 ± 0.013
81 | PNPIHHPTSTTA | 0.672 ± 0.053
82 | LCPVGLGFFVGL | 0.666 ± 0.056
83 | KERKNKKINRKF | 0.686 ± 0.093
84 | SGVALFFFPPLL | 0.71 ± 0.039
85 | PSPPFPPPSPPP | 0.687 ± 0.02
86 | CLSILRNVVPII | 0.723 ± 0.08
87 | PSALLGTCRCVQ | 0.706 ± 0.028
88 | SGSMHWTDPPGS | 0.6747 ± 0.0051
89 | PPPPTPRYRAPL | 0.671 ± 0.057
90 | LAYITTTPALAS | 0.581 ± 0.048
91 | PLQEHYRQIFPD | 0.71 ± 0.0044
92 | VIPREPSEPHTA | 0.639 ± 0.021
93 | GCGGGVCGWWDA | 0.916 ± 0.12
94 | KGRAERKKDKKR | 0.684 ± 0.025
95 | LTVLCWVLCYLL | 0.527 ± 0.026
96 | LLLFSILPFCLF | 0.53 ± 0.073
97 | GWVLRERGRGVG | 0.572 ± 0.07
98 | TVTPPAPCPPAG | 0.709 ± 0.032
99 | PFPPPPVPHARR | 0.775 ± 0.22
100 | GAMVVRSSSPWT | 0.685 ± 0.019

Row | Sequence | protein stability index
101 | PDRYPPPPGRRG | 0.704 ± 0.014
102 | AHPLSPLSSPLR | 0.682 ± 0.081
103 | RFSVRGARHRCG | 0.693 ± 0.0079
104 | RIDRDDHLVPNS | 0.626 ± 0.092
105 | KNKKKKKTKKKK | 0.792 ± 0.079
106 | RAAVTDPCNPLL | 0.693 ± 0.0094
107 | GWTGEVGVAAGA | 0.65 ± 0.064
108 | AVGVRSSGRVSI | 0.7246 ± 0.0034
109 | RSQRRWCSKIRV | 0.625 ± 0.095
110 | DASVIPAKPRRS | 0.69 ± 0.041
111 | GRDFASNFRQLG | 0.718 ± 0.026
112 | LWVREVVVVGTV | 0.519 ± 0.013
113 | VRVRGDPLVCPL | 0.592 ± 0.0096
114 | TIPSSSQVPIGG | 0.641 ± 0.021
115 | ALESHFMVPSFP | 0.693 ± 0.043
116 | PPLLPPPPQLLL | 0.679 ± 0.028
117 | RLLFPPPMLPPP | 0.735 ± 0.038
118 | TTRALEAPARPN | 0.6518 ± 0.0054
119 | GTGTNGPSSAKL | 0.7399 ± 0.0056
120 | LVSFSDTPMATA | 0.786 ± 0.1
121 | HGFHSPPSDLPT | 0.724 ± 0.15
122 | PLPPPPRLPPRH | 0.677 ± 0.04
123 | FCWLCRFADSPF | 0.733 ± 0.078
124 | FVLLSPRYSPPR | 0.676 ± 0.027
125 | KKRGKNSKAQRE | 0.694 ± 0.013

Row | Sequence | protein stability index
126 | WLSDSCRMNSEV | 0.666 ± 0.035
127 | AFSLRGRSVMFY | 0.688 ± 0.025
128 | ALTWVGEGLRGS | 0.699 ± 0.027
129 | VDTPPPHHSPLL | 0.733 ± 0.068
130 | QPGTPLSPPPSP | 0.49 ± 0.019
131 | LFAGTFTEYPLS | 0.641 ± 0.078
132 | KGTRKPSTKIIV | 0.667 ± 0.074
133 | CVCHWTALCIQI | 0.512 ± 0.013
134 | AGSCRCRTCCLV | 0.61354 ± 0.00038
135 | EGLNASGGGSGG | 0.644 ± 0.07
136 | EGRKTLWEGNRG | 0.609 ± 0.059
137 | FGKWSWGECEGS | 0.69 ± 0.032
138 | LFRPSFFFFVCQ | 0.548 ± 0.0027
139 | SRARADTSRRRA | 0.7061 ± 0.0059
140 | GRNCGHSCANRP | 0.696 ± 0.027
141 | GVGRGGAVENKV | 0.742 ± 0.054
142 | LCFVFDLASLCW | 0.539 ± 0.04
143 | VSCGGSARRASP | 0.704 ± 0.0078
144 | LESSLPIDSERC | 0.675 ± 0.055
145 | LSLPPHSPPLHR | 0.702 ± 0.04
146 | SGYCCDGCKGSY | 0.6461 ± 0.0028
147 | SPSPPSFRPSLH | 0.712 ± 0.12
148 | VIDFAELGTVAH | 0.7301 ± 0.005
149 | AFRGRGAFKYCL | 0.683 ± 0.1
150 | DFIAGGSRPFLV | 0.715 ± 0.015

Row | Sequence | protein stability index
151 | GVRGGCDRGEVG | 0.604 ± 0.046
152 | SSLRPPPPLPPP | 0.682 ± 0.012
153 | VAGAGAGREAAY | 0.616 ± 0.026
154 | WCTLNGASLCLH | 0.7719 ± 0.0067
155 | GIPEFGYLYLVT | 0.613 ± 0.017
156 | LCPSLLFSSSDP | 0.699 ± 0.024
157 | QITSHRVISRLV | 0.546 ± 0.037
158 | PGGTDGYSGLEK | 0.689 ± 0.011
159 | KKNIKKKRNIEK | 0.625 ± 0.04
160 | GLPSSYLSALFR | 0.708 ± 0.029
161 | ESAGESRREFGG | 0.693 ± 0.011
162 | PPPLPVFPRPPP | 0.682 ± 0.012
163 | DRLGADCPLLSG | 0.734 ± 0.028
164 | WHACAGWLGQKG | 0.71 ± 0.078
165 | PLRRPPRLPAPP | 0.7 ± 0.11
166 | QQDHRSHAHRRL | 0.7047 ± 0.0013
167 | SPDGVEILPIRG | 0.684 ± 0.017
168 | DCLFQSKLNTYD | 0.676 ± 0.041
169 | SPGLYGPLSRGM | 0.684 ± 0.063
170 | HPAGPSGRLLPT | 0.685 ± 0.0095
171 | FPSSLPSAFPCP | 0.675 ± 0.016
172 | FHPVLPMSFRHV | 0.666 ± 0.029
173 | SGGRRRAGKGAT | 0.69 ± 0.049
174 | RKVVLLFGLGEG | 0.669 ± 0.026
175 | GIRAEPSGGQAE | 0.692 ± 0.057

Row | Sequence | protein stability index
176 | GWKLGAGRRGVI | 0.704 ± 0.029
177 | SPRLPPSPPPDL | 0.628 ± 0.023
178 | VLLRVSEQVSRV | 0.676 ± 0.1
179 | PGSLSLSPLLPS | 0.758 ± 0.037
180 | TLLAPPAPTPAG | 0.684 ± 0.036
181 | YVLLSRFYLPPL | 0.665 ± 0.02
182 | RGGGRDGQTRGV | 0.6165 ± 0.0045
183 | LFICETRLDSRY | 0.744 ± 0.13
184 | SGPTFRWAGVLC | 0.593 ± 0.014
185 | PPQHRNPAVRRH | 0.667 ± 0.023
186 | RDPPLPRRLPSL | 0.706 ± 0.058
187 | NVRCLVELGGEV | 0.714 ± 0.058
188 | HRASFRIGFRTF | 0.758 ± 0.033
189 | GVGAERCFVGVV | 0.681 ± 0.077
190 | VYSAGRAVGLAG | 0.673 ± 0.035
191 | VFFPLFLNGSNV | 0.695 ± 0.018
192 | VFFRGVVVLLRL | 0.472 ± 0.048
193 | PASPLFAPSVVP | 0.747 ± 0.0086
194 | LWGVGGADARLQ | 0.775 ± 0.021
195 | RLSLGPGLLGSH | 0.74 ± 0.014
196 | MEAERRKEGENS | 0.673 ± 0.072
